Laboratory results from doi:10.1101/2022.07.21.500812.

Legend:
[1] = biological target: hGPC3^core(R355A/R358A) (human) (UniProt P51654); assay: native MS
[2] = biological target: rattus norvegicus Unc5D residues 32-307 (rUnc5D^IgIgTSP) (rattus norvegicus) (UniProt F1LW30); assay: crystal structure

hGPC3^core(R355A/R358A) (human), sequence (P51654 32-483 R355A/R358A): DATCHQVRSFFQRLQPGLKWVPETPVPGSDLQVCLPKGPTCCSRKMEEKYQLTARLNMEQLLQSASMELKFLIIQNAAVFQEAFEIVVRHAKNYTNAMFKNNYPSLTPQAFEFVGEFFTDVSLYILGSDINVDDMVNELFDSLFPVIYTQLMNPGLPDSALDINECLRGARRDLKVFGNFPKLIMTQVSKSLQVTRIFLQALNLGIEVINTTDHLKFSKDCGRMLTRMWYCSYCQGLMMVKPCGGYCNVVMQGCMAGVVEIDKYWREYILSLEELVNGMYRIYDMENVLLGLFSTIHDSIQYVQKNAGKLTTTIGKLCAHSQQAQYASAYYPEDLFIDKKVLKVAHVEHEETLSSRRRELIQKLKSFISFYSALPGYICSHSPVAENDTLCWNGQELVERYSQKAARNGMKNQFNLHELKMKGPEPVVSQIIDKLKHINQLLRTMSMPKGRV

rattus norvegicus Unc5D residues 32-307 (rUnc5D^IgIgTSP) (from UniProt F1LW30 32-307) (domain or fragment)
stoichiometry N (Unc5D per GPC3 (1:1)) [1]: 1
stoichiometry N (Unc5D per GPC3 (2:2)) [1]: 1
stoichiometry N (Unc5D per GPC3 (4:4)) [1]: 1
stoichiometry N [2]: 4
